Reference: paper PMC12610585

Substrate: O=[N+]([O-])c1ccc(O[C@H]2O[C@H](CO)[C@H](O)[C@H](O)[C@H]2O)cc1
Experiment: purified protein
Details: optimized conditions: 37 °C, pH 6.0, 10 min, 0-8 mM substrate

B1: Amuc_0517 (Akkermansia muciniphila ATCC BAA-835) (protein)
chain: QPRTTAILPVPGEKACRLPLPPYQAFCWFSADRGRWPGDGNRVLPWFGRTAPGNLLDSKPNPSTAKPGDHAMFALFHLKDGNFMAVLPVAAPDSLAWLKLERDGTFLVEAGSLGTSPAKPQAVLAVTATDKDIYRACSAVWDKALSLPFIKGRTLPREKKIYPEPFKYLGWCSWEQYKKNISSKLLEETARKLEASPVPVRWMLVDDGFQTQERLQLVSFQPRQDQFPRGWQPLMKHKSPKLKWMGLWHCYYGLWNGIHPRHRLDDETARGLVRTAKGKILPGDGSGGAGAFYTPFLQSVKDTGFDFVKIDVQAEYLKHADGLDNPVRHNTKCSEALEQACLKTGLSLVNCMAQGTVNIQNTRYSAVTRCSIDYKLGDEAMAKSHILQSYANTLWLGQTVWPDHDMFHSTDPACARLMAVSKAVSGGPVYLSDPADKLNPENIMPLVWSDGLLLRPLAPAVPLPDSVFPDALNENRLYRVIAPLPGQSAAVVVYNLKHPSPAEPVRGKISLEDYKNAAALLNGNAAEAYASLPAEGIAAYSAEGGRALTPAQPDLDVELTGFKDRLFIMAPIVQGWAVIGRRDKFLSPCALVSAPGYRENGLRFRVKESGPVVIWRGKGPVKAGNTPVRNLGNGFYELQFPVSDHPLDITVTAE
Question: How did the Km turn out when B1 was run?
Answer: 8.2 mM
